Substrate: CCCCCCCCCCCC(=O)Oc1ccc([N+](=O)[O-])cc1
Assay: purified protein
Format: biochemical, Bombus terrestris
Conditions: 50 mM Tris/HCl, pH 8.2, 25°C, p-NPL 0.05-0.4 mM added in 2-propanol

B1: lipase BT-1 (Bombus terrestris) (protein)
chain: VICDVEDTLHVSRKIRLKIYKGNSSYFSSTESMVMNPGNIADDILPDRDSILYIHGFLENTEAENVRVIIRAYLDKGDVNVIVLDWGEIAFNINYVYVSSQVVTIAKAVAESLKKLVDLIDLDTLHVIGHSLGAHIAGNIGRYANINLSRITGLDPALPLFYPSTCHVRSTDAEAVVILHTDGGFYGTATNTGTIDFYVNGGSSVQPGCPIIFGGEFCSHQRSTRIYAESLLNPKAFPAHKCLNEIADTEEVYFGDSTPKDIYGTYCFNTNAKPPYGKTI
notes: native, purified from labial gland (cephalic part) of 2- to 3-day-old males on octyl-agarose, Triton X-100 desorption; ~30 kDa on SDS-PAGE; identified by MS (18 peptides); catalytic triad Ser155, Asp179, His244
B1 gave a Km of 1.1 ± 0.3 µM and a Vmax of 0.15 µmol/min/mg.

From publication PMC3832651, “Characterization of Neutral Lipase BT-1 Isolated from the Labial Gland of Bombus terrestris Males” (PLoS ONE, 2013)
